Results published in patent US20180282430A1 (Bayer, published 2018).

T1: Human TFPI (tissue factor pathway inhibitor) (human, UniProt P10646 29-304, limits assumed)
T1 construct: Coated at 1 ug/ml on Maxisorb plates for the ELISA; For the Biacore work the human TFPI came from American Diagnostica
T1 sequence (looked up): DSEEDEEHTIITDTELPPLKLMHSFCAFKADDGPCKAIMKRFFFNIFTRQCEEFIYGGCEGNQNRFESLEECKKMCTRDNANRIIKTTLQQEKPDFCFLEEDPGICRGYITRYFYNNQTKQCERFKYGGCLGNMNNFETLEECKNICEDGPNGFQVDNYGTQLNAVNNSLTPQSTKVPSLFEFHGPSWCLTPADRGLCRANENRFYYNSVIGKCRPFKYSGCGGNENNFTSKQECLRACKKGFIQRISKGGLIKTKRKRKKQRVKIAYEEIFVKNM


What was measured:
[1] = molecular target: T1, Human TFPI (tissue factor pathway …); assay: ELISA on plate-coated human TFPI; Fab expression media bound, then 1 h at 37 C in 100 mM citrate pH 6.0; amplex red
Method: (§1) Human TFPI, 1 μg/ml, was used to coat Maxisorb™ microtiter plates. Expression media, 100 μl, from each member of the His scan library, was added to two wells on the plate, in a pair wise fashion. The plate was incubated on a shaker at room temperature for 1 hr. The plate was washed 3× with PBST. PBS (pH 7.0) was added to one well of the pair, 100 mM pH6.0 Citrate buffer was added to the second well of the same pair. The plate was incubated at 37° C. with shaking for one hr. The plate was washed 3× with PBST and developed using amplex red. A pH 7.0/pH 6.0 ratio was established to rank the sensitive muteins. The ratio for wild type 2A8-g200 Fab was 1.0.

[2] = molecular target: T1, Human TFPI (tissue factor pathway …); assay: pH 6.0 TFPI dissociation ELISA; ratio of the signals at pH 7.0 and pH 6.0
Method: as §1

[3] = molecular target: T1, Human TFPI (tissue factor pathway …); assay: ELISA on plate-coated human TFPI; Fab expression media bound, then 1 h at 37 C in PBS pH 7.0; amplex red
Method: as §1

[4] = molecular target: T1, Human TFPI (tissue factor pathway …); assay: SPR (Biacore T200): human TFPI amine-coupled on a CM4 or CM5 chip, Fab variant injected, dissociation followed in pH 7.4 or pH 6.0 buffer
Method: Purified 2A8-g200 variants in Fab format (referred to as wt gA200Fab in Table 1) were tested using surface plasmon resonance (Biacore). Surface plasmon resonance (Biacore T200) was used to measure the dissociation rate of the antibodies. […] Purified 2A8-g200 variants were injected, following by 40-minute dissociation either at pH7.4 or pH6.0 buffer. The antibodies were diluted in HBS-P buffer at different concentrations and the flow rate was set to 50 μl/min. After each round of antibody injection, the chip was regenerated by injecting 90 μl of pH 1.5 glycine. The data set was evaluated using BIAevaluation Software.
The dissociation constant (kd) for each 2A8-g200 variant antibody was determined by using a model with the following equation: […]
where R is the response at time t, R₀ is the response at time t_{0.}—the start of dissociation, offset allows for a residual response at the end of complete dissociation. A ratio of kd at pH 6.0 to kd at pH 7.4 was calculated for each 2A8-g200 variant. A mutation with observed ratio of […] was considered as pH-sensitive mutation and could be used for construction of IgG variants of 2A8-g200.

Binder	TFPI ELISA signal, pH 6.0 [1]	Ratio pH 7.0/pH 6.0 [2]	TFPI ELISA signal, pH 7.0 [3]	fold (x) printed after the variant's name; the sheet does not name it, paragraph 57 speaks of the ratio of kd at pH 6.0 to kd at pH 7.4 [4]
2A8-g200 Fab (wild type) (Fab, V domains shown, Fab format, expressed in E. coli; also called wt gA200Fab; wild type 2A8-g200 Fab) VH: EVQLVESGGGLVQPGGSLRLSCAASGFTFSSYGMDWVRQAPGKGLEWVSSIRGSRGSTYYADSVKGRFTISRDNSKNTLYLQMNSLRAEDTAVYYCARLYRYWFDYWGQGTLVTVSS VL: SYELTQPPSVSVSPGQTARITCSGDNLPKYYAHWYQQKPGQAPVVVIFYDVNRPSGIPERFSGSNSGNTATLTISGTQAMDEADYYCQAWWSSTPVFGGGTKLTVLG	5350	0.98	5250	
2A8-g200 Fab VH-Y102H (Fab, V domains shown, Member of the 2A8-g200 Fab histidine scanning library) VH: EVQLVESGGGLVQPGGSLRLSCAASGFTFSSYGMDWVRQAPGKGLEWVSSIRGSRGSTYYADSVKGRFTISRDNSKNTLYLQMNSLRAEDTAVYYCARLYRHWFDYWGQGTLVTVSS VL: SYELTQPPSVSVSPGQTARITCSGDNLPKYYAHWYQQKPGQAPVVVIFYDVNRPSGIPERFSGSNSGNTATLTISGTQAMDEADYYCQAWWSSTPVFGGGTKLTVLG	1080	3.07	3310	
2A8-g200 Fab VH-Y100H (Fab, V domains shown, Member of the 2A8-g200 Fab histidine scanning library) VH: EVQLVESGGGLVQPGGSLRLSCAASGFTFSSYGMDWVRQAPGKGLEWVSSIRGSRGSTYYADSVKGRFTISRDNSKNTLYLQMNSLRAEDTAVYYCARLHRYWFDYWGQGTLVTVSS VL: SYELTQPPSVSVSPGQTARITCSGDNLPKYYAHWYQQKPGQAPVVVIFYDVNRPSGIPERFSGSNSGNTATLTISGTQAMDEADYYCQAWWSSTPVFGGGTKLTVLG	1430	1.78	2540	
2A8-g200 Fab VH-S50H (Fab, V domains shown) VH: EVQLVESGGGLVQPGGSLRLSCAASGFTFSSYGMDWVRQAPGKGLEWVSHIRGSRGSTYYADSVKGRFTISRDNSKNTLYLQMNSLRAEDTAVYYCARLYRYWFDYWGQGTLVTVSS VL: SYELTQPPSVSVSPGQTARITCSGDNLPKYYAHWYQQKPGQAPVVVIFYDVNRPSGIPERFSGSNSGNTATLTISGTQAMDEADYYCQAWWSSTPVFGGGTKLTVLG	1640	1.32	2160	
2A8-g200 Fab VH-Y32H (Fab, V domains shown, Member of the 2A8-g200 Fab histidine scanning library) VH: EVQLVESGGGLVQPGGSLRLSCAASGFTFSSHGMDWVRQAPGKGLEWVSSIRGSRGSTYYADSVKGRFTISRDNSKNTLYLQMNSLRAEDTAVYYCARLYRYWFDYWGQGTLVTVSS VL: SYELTQPPSVSVSPGQTARITCSGDNLPKYYAHWYQQKPGQAPVVVIFYDVNRPSGIPERFSGSNSGNTATLTISGTQAMDEADYYCQAWWSSTPVFGGGTKLTVLG	2580	1.38	3560	
2A8-g200 Fab VL-F48H (Fab, V domains shown, Member of the 2A8-g200 Fab histidine scanning library) VH: EVQLVESGGGLVQPGGSLRLSCAASGFTFSSYGMDWVRQAPGKGLEWVSSIRGSRGSTYYADSVKGRFTISRDNSKNTLYLQMNSLRAEDTAVYYCARLYRYWFDYWGQGTLVTVSS VL: SYELTQPPSVSVSPGQTARITCSGDNLPKYYAHWYQQKPGQAPVVVIHYDVNRPSGIPERFSGSNSGNTATLTISGTQAMDEADYYCQAWWSSTPVFGGGTKLTVLG	1550	1.33	2070	

Further lines, results first:

TFPI ELISA signal, pH 6.0 [1]	Ratio pH 7.0/pH 6.0 [2]	TFPI ELISA signal, pH 7.0 [3]	fold (x) printed after the variant's name; the sheet does not name it, paragraph 57 speaks of the ratio of kd at pH 6.0 to kd at pH 7.4 [4]	Binder
133	6.84	913	3.2 x	2A8-g200 Fab VL-Y31H (Fab, V domains shown, Member of the 2A8-g200 Fab histidine scanning library) VH: EVQLVESGGGLVQPGGSLRLSCAASGFTFSSYGMDWVRQAPGKGLEWVSSIRGSRGSTYYADSVKGRFTISRDNSKNTLYLQMNSLRAEDTAVYYCARLYRYWFDYWGQGTLVTVSS VL: SYELTQPPSVSVSPGQTARITCSGDNLPKYHAHWYQQKPGQAPVVVIFYDVNRPSGIPERFSGSNSGNTATLTISGTQAMDEADYYCQAWWSSTPVFGGGTKLTVLG
2040	1.3	2660		2A8-g200 Fab VL-Y49H (Fab, V domains shown, Member of the 2A8-g200 Fab histidine scanning library) VH: EVQLVESGGGLVQPGGSLRLSCAASGFTFSSYGMDWVRQAPGKGLEWVSSIRGSRGSTYYADSVKGRFTISRDNSKNTLYLQMNSLRAEDTAVYYCARLYRYWFDYWGQGTLVTVSS VL: SYELTQPPSVSVSPGQTARITCSGDNLPKYYAHWYQQKPGQAPVVVIFHDVNRPSGIPERFSGSNSGNTATLTISGTQAMDEADYYCQAWWSSTPVFGGGTKLTVLG
2640	1.3	3420	2.7 x	2A8-g200 Fab VL-L27H (Fab, V domains shown, Member of the 2A8-g200 Fab histidine scanning library) VH: EVQLVESGGGLVQPGGSLRLSCAASGFTFSSYGMDWVRQAPGKGLEWVSSIRGSRGSTYYADSVKGRFTISRDNSKNTLYLQMNSLRAEDTAVYYCARLYRYWFDYWGQGTLVTVSS VL: SYELTQPPSVSVSPGQTARITCSGDNHPKYYAHWYQQKPGQAPVVVIFYDVNRPSGIPERFSGSNSGNTATLTISGTQAMDEADYYCQAWWSSTPVFGGGTKLTVLG
1510	1.21	1830		2A8-g200 Fab VL-W90H (Fab, V domains shown, Member of the 2A8-g200 Fab histidine scanning library) VH: EVQLVESGGGLVQPGGSLRLSCAASGFTFSSYGMDWVRQAPGKGLEWVSSIRGSRGSTYYADSVKGRFTISRDNSKNTLYLQMNSLRAEDTAVYYCARLYRYWFDYWGQGTLVTVSS VL: SYELTQPPSVSVSPGQTARITCSGDNLPKYYAHWYQQKPGQAPVVVIFYDVNRPSGIPERFSGSNSGNTATLTISGTQAMDEADYYCQAHWSSTPVFGGGTKLTVLG
1770	1.24	2200		2A8-g200 Fab VL-V45H (Fab, V domains shown, Member of the 2A8-g200 Fab histidine scanning library) VH: EVQLVESGGGLVQPGGSLRLSCAASGFTFSSYGMDWVRQAPGKGLEWVSSIRGSRGSTYYADSVKGRFTISRDNSKNTLYLQMNSLRAEDTAVYYCARLYRYWFDYWGQGTLVTVSS VL: SYELTQPPSVSVSPGQTARITCSGDNLPKYYAHWYQQKPGQAPVHVIFYDVNRPSGIPERFSGSNSGNTATLTISGTQAMDEADYYCQAWWSSTPVFGGGTKLTVLG
